Laboratory results reported in patent publication US20130022592A1, “Continuous subcutaneous insulin infusion methods with a hyaluronan-degrading enzyme” (priority 2011, published 2013).
Entries after “also recorded” stand apart in the source; their conditions may differ. Read-outs that look alike come from different tables or passages of the source.

Assays:
[1] = cited from earlier work
[2] = Glucodynamics in euglycemic clamps, NovoLog CSII with or without rHuPH20 pretreatment (Example 3); type: in vivo, human; details: for faster onset of action with rHuPH20 pretreatment / shorter duration of action with rHuPH20 pretreatment: vs without rHuPH20
Experimental: The subjects were confined to an inpatient setting for three days of study.
Approximately 2 hours after insertion of the new insulin infusion catheter set, a euglycemic glucose clamp experiment was conducted (1′ clamp). […] Blood glucose was clamped at 90% of the fasting level to suppress endogenous insulin release during the study. A 0.15 U/kg bolus was administered through the insulin pump; and the usual individual basal rate was continued during clamps and PK results are thus baseline-subtracted.
During the euglycemic glucose clamp experiment, the subjects were followed for six (6) hours during which blood was drawn and free insulin levels and glucose infusion rates required to maintain euglycemia were determined.
In each experiment, the subjects were followed for six (6) hours during which blood was drawn and free insulin levels and glucose infusion rates required to maintain euglycemia were determined as described above.
(§1) The insulin action profile as a function of time, or glucodynamics, was measured by determining the rate of glucose infusion necessary to maintain euglycemia following the bolus insulin infusion.

[3] = Blood glucose response to standardized evening meal (Example 3); type: in vivo, human; details: with vs without rHuPH20
Excerpt: (§2) The study was continued to include 15 subjects who completed the study protocol, and was further continued to include 17 subjects who completed the study protocol. The subjects were confined to an inpatient setting for three days of study.

[4] = Glucodynamics in euglycemic clamps, rapid acting insulin analog CSII with rHuPH20 or sham injection (Example 4); type: in vivo, human
Excerpt: Patients with type 1 diabetes participated in a randomized, double-blind, 2-way crossover design clinical study comparing the administration of a single hyaluronidase injection at each infusion set change to sham injections in a CSII therapy. The study compared euglycemic clamp endpoints at the beginning and end of 3 days of continuous infusion and glycemic response to a series of four breakfast solid meal challenges. […] In addition, continuous glucose monitoring of the three subjects to compare glucose control in routine outpatient diabetes care also was assessed.
Subjects were released from the CRU the same day.
Subjects returned 3 days later for a second euglycemic clamp after 3 days of continuous infusion. After the clamp experiment the infusion set was changed and the patients discharged. […] Subjects returned to the CRU approximately every 3 days to receive a new infusion set and receive a patient specific standardized breakfast meal and insulin bolus.
as §1

[5] = Routine diabetes management, continuous glucose monitoring (Example 4); type: in vivo, human; details: three patients; rHuPH20 preadministration
Experimental: The results are depicted below for the first three subjects that completed the study. In addition, continuous glucose monitoring of the three subjects to compare glucose control in routine outpatient diabetes care also was assessed. […] After the clamp experiment the infusion set was changed and the patients discharged. […] To maintain the double-blind study design, a trained professional not otherwise involved in the study administered either rHuPH20 or a sham injection while the patient looked away. After completion of the phase, patients returned to the CRU within 21 days to repeat these steps with the alternate treatment.

[6] = Adverse events (Example 4); type: in vivo, human; details: eleven evaluable subjects
Excerpt: 4. […] All were mild and resolved without sequaelae. The most common event was headache (n=4).

[7] = in vivo
Experimental: as §2
Adverse events were assessed during the course or infusion treatment.

Regular Insulin
Duration ([1]; Table 2, Types of Insulins): 5 to 8 h
onset of action ([1]; administered subcutaneously alone): 30 min

Lente
Peak ([1]; in vivo): 6 to 12 h

insulin glargine
Duration ([1]; Table 2, Types of Insulins): 28 h
Onset ([1]; Table 2, Types of Insulins): 4 to 6 h
Peak ([1]; Table 2, Types of Insulins): 18 to 28 h

detemir: long-lasting insulin (an analog)
Duration ([1]; Table 2, Types of Insulins): 28 h
Onset ([1]; Table 2, Types of Insulins): 4 to 6 h
Peak ([1]; Table 2, Types of Insulins): 18 to 28 h

insulin lispro
Duration ([1]; Table 2, Types of Insulins): 3 to 4 h
Onset ([1]; Table 2, Types of Insulins): 0.083 to 0.25 h
Peak ([1]; Table 2, Types of Insulins): 0.75 to 1.5 h

B1: rHuPH20: soluble recombinant human PH20 hyaluronidase expressed in CHO cells from nucleic acid encoding amino acids 36-482 of SEQ ID NO:1; mixture of SEQ ID NOS:4-9 (protein, listed as Homo sapiens)
chain: LNFRAPPVIPNVPFLWAWNAPSEFCLGKFDEPLDMSLFSFIGSPRINATGQGVTIFYVDRLGYYPYIDSITGVTVNGGIPQKISLQDHLDKAKKDITFYMPVDNLGMAVIDWEEWRPTWARNWKPKDVYKNRSIELVQQQNVQLSLTEATEKAKQEFEKAGKDFLVETIKLGKLLRPNHLWGYYLFPDCYNHHYKKPGYNGSCFNVEIKRNDDLSWLWNESTALYPSIYLNTQQSPVAATLYVRNRVREAIRVSKIPDAKSPLPVFAYTRIVFTDQVLKFLSQDELVYTFGETVALGASGIVIWGTLSIMRSMKSCLLLDNYMETILNPYIINVTLAAKMCSQVLCQEQGVCIRKNWNSSDYLHLNPDNFAIQLEKGGKFTVRGKPTLEDLEQFSEKFYCSCYSTLSCKEKADVKDTDAVDVCIADGVCIDAFLKPPMETEEPQIFY
modifications: mixture of SEQ ID NOS:4-9; precursor human PH20
faster onset of action with rHuPH20 pretreatment ([2]; 15 completers): 9 min
shorter duration of action with rHuPH20 pretreatment ([2]; 15 completers): 27 min
faster onset of action with rHuPH20 pretreatment ([2]; 17 completers): 9 min
shorter duration of action with rHuPH20 pretreatment ([2]; 17 completers): 27 min
differences in early insulin exposure, onset or duration of action over three days of continuous infusion (in words) ([2]; Example 3, rHuPH20 pretreatment): no significant differences
reduction in 2 hour glycemic excursion ([3]; 15 completers): 21 mg/dL
reduction in 2 hour glycemic excursion ([3]; 17 completers): 19 mg/dL
differences in onset or duration of action over three days of continuous infusion (in words) ([4]; Example 4, rHuPH20 pretreatment): no significant differences
faster onset of action with rHuPH20 pretreatment ([4]; vs without rHuPH20): 21 min
shorter duration of action with rHuPH20 pretreatment ([4]; vs without rHuPH20): 30 min
outpatient glucose control (in words) [5]: tighter glucose control
Potential local site reactions (in words) [6]: an abdominal bruise; also recorded: pain at the infusion site; also recorded: a stinging sensation during infusion
subjects with adverse events related to CSII infusion sites (in words) [7]: two subjects
